From patent US20210085785A1 (TRUEBINDING, published 2021) come the findings set out here.

The target in assay [1] is T1, Purified human LRIG1 extracellular domain fused to a HIS tag (R&D Systems) (human) (UniProt Q96JA1).
T1 sequence: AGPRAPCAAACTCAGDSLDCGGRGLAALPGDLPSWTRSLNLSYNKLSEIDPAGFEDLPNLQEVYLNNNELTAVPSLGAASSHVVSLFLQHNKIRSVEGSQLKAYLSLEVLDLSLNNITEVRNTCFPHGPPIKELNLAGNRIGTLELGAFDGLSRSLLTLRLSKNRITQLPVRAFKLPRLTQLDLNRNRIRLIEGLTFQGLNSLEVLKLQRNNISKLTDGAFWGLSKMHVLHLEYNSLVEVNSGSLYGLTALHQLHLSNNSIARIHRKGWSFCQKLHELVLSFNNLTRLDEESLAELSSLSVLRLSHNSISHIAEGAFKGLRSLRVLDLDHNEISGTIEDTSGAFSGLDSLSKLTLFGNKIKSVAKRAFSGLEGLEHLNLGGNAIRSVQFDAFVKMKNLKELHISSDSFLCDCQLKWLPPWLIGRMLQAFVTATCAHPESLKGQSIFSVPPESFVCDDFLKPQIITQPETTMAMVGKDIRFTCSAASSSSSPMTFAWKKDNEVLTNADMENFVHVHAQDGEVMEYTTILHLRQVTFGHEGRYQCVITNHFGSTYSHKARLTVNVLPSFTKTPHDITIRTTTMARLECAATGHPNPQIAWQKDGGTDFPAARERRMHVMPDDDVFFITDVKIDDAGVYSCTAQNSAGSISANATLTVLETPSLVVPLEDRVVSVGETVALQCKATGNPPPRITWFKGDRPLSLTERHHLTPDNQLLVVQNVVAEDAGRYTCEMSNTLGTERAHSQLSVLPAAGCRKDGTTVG
Description: biosensor binning; saturating mab5 20 ug/mL, competitor mab6 5 ug/mL.

The target in assay [2] is T1, Purified human LRIG1 extracellular domain fused to a HIS tag (R&D Systems) (human). In words: blocking ELISA: LRIG1 ECD-His coated, antibody 3.3 ug/ml, oligomerized VISTA 50 nM, avidin-HRP.
The target is the same in assay [3]. Description: biosensor binning; saturating mab5 20 ug/mL, competitor mab2 5 ug/mL.
For assay [4] the target is unchanged. Description: biosensor binning; saturating mab5 20 ug/mL, competitor mab5 5 ug/mL.
For assay [5] the target is unchanged. In words: biosensor binning; saturating mab5 20 ug/mL, competitor mab4 5 ug/mL.
Assay [6] concerns the target T2, Purified human LRIG1 extracellular domain fused to a HIS tag (R&D Systems) (human, UniProt Q96JA1 35-794).
T2 construct: also called human LRIG1-His; hLRIG1-His; not shown: HIS tag
T2 sequence: T1 sequence
In words: blocking ELISA: LRIG1 ECD-His coated, antibody 3.3 ug/ml, oligomerized VISTA 50 nM, avidin-HRP. As to the method: To identify LRIG1-targeted antibodies with the ability to block the interaction of LRIG1 and VISTA, purified LRIG1 and VISTA proteins were incubated in the presence of various LRIG1-targeted or control antibodies, or without antibody, and protein interaction was evaluated by ELISA. Purified human LRIG1 extracellular domain fused to a HIS tag (R&D Systems) was diluted in phosphate buffered saline (PBS) (Corning) to a concentration of 3 μg/ml and 100 ul was added to each well of a 96-well ELISA plate (Thermo Fisher, 44-2404-21). After incubating the plate at 4° C. overnight, the plate was washed three times with 300 μl of PBS with 0.05% TWEEN (VWR) (PBST) per well. The plate was then blocked for an hour with 200 μl of 2% bovine serum albumin (BSA) (Sigma) in PBST per well at room temperature with gentle rocking. Thereafter, the 2% BSA in PBST was removed and 50 ul of antibody at 3.3 ug/ml in 2% BSA in PBST was added to the wells. The plate was incubated for 10 minutes at room temperature with gentle rocking. Afterwards, 50 nM of oligomerized VISTA in 100 ul PBS buffer was added per well. […] The plate was read using a plate reader (Molecular Devices) at absorbance of 450 nm. Percent blockade of LRIG1-VISTA interaction was calculated as the fraction of signal obtained in each experimental samples of the no antibody sample less background signal.
On the technique in general: An ELISA detects its analyte on a solid surface through an enzyme-linked reagent.

Numbering of substitutions follows the chain as printed.

B1: mab5 (antibody, V domains shown)
VH: QVQLVQSGAEVKKPGASVKVSCKASGYTFTSYYLHWVRQAPGQRLEWMGWIYPGNVNTKYNQKFQGRVTITADKSASTAYMELSSLRSEDTAVYFCAREELGGFAYWGQGTLVTVSS
VL: DIQMTQSPSSLSASVGNRVTITCRASQDISNYLSWYQQKPGKVPKLLIYYTSILHSGVPSRFSGSGSGTDYSLTISSLQPEDVATYFCQQGNTLPRTFGQGTKVEIK
As to B1, the competition matrix entry (not explained) in assay [1], in assay [3], in assay [4] and in assay [5] was 0 throughout. The same molecule returned a percent of LRIG1-VISTA binding relative to an unblocked sample in assay [2] of 60%.

B2: mab4 (IMT300) (antibody, V domains shown)
VH: B1 VH
VL: B1 VL with L11V, V15I, N17D, V43A, S72T, V83F, Q100G
notes: also called hLRIG1 mAb IMT300; Immutics PP14384
As to B2, the “percent of LRIG1-VISTA binding relative to an unblocked sample” value in assay [6] is 44%.

B3: mab6 (antibody, V domains shown)
VH: B1 VH with M48I, Q62E, I70L
VL: B1 VL with L11V, V15I, N17D, V43A, S72T, V83F, Q100G
notes: also called Immutics PP14387
As for B3, the “percent of LRIG1-VISTA binding relative to an unblocked sample” value in assay [6] amounted to 43%.
